The record followed here is the DeepSol protein solubility set.

A short description of this data set: soluble on expression in E. coli; label from the status in PepcDB or PDB records.
“MSLMYGYPEKWLEGMTTGEGIAAELRLGIVNGHIAEGTLLTENQMAKQFNVSRSPIRDAFKLLQQNQLIQLERMGAHVLPFGEQEKKEMYDLRLMLESFAFSRVKNQERLPIVKEMKKQLEMMKVAVKFEDAESFTKHDFEFHETLIKASNHQYLNSFWSHLKPVMMALVLTSMRQRMQQNPQDFERIHHNHQVFIDAVEQYDSQILKEAFHLNFDDVGKDIEGFWLNEGHHHHHH”: the “soluble on expression in E. coli” value is listed as “soluble”. To “MSLNALIEELKRLLKECATKKIVVIGECVRDVFVNTQRLSGPSDYQYTITKQLQRREFPGGAYPVARDLSNFVSKVHFVTCSTHEFPTNLERMDVIPISRERISKTRFFSGHNSNIFHYHCVFSEEITLSLTPLQELASVFSEADLVIVLDYGHGLLNSDVRKSISQNARFVALNCQANEDKYPFHQIWKYESTDLLLLNKVEAEINLLKTGVPVQELALRLHSKFKSTYTIVTDAEHGAVIQHDYRAYSSPAMSSCVVDAVGCSDIMLGFAALAAQNGKSAEEILYFASVAAGAKTMINVHERPLSREDLYEIALGVQNEGHHHHHH” belongs “not soluble”; to “MSLNASVSPKGSLETLSQREVQQLSEVGTGSLYTLFRQCALAILNTGAHVDNAKTILEAYKDFEVRIHQQDRGVRLELLNAPADAFVDGEMIASTREMLFSALRDIVYTESELASQRIDLESSQGITDYVFHLLRNARTLRPGEGHHHHHH”, “not soluble”; to “MSLNATARQEPADLNDPALRARAVTAARGDAPFDMLITGGRLLDTVTGLIRQADIGLVGALISSVHAPASRTDAVEIIDAAGSILTPGLIDTHMHIESSMVTPAEYASAVLPRGVTTIVWDPHEFGNVHGLDGVRWAIEAARSLPLRMILLAPSCVPSAPGLELAGADFDASMITEMLHSSAVGGVAEVMNMRGVIDGDPRMTDIVNAGLAAGKLVCGHARGLEGADLNAFMASGITSDHELTSGADLLAKLSAGLTIELRGSHDHLLQEFVEVLSGLGHLPPTVTLCTDDVFPDELQEGGGLDDVVRRLVRYGMKPEWAIRAATFNAAQRLKRSDLGLVATGRRADIVLFEDLTEFRARLVISGGRIVARNGSMQVAVQQIDTAPLVNSVKLPPLTENDFRIPAKGERVRVATIDRPRFTQWGEAETEVRDGFIVPPAGSAMISVAHRHGKTDGIPRIGFLTGWGEWRGAFCTTVSHDSHNLTVFGGNAGDMALAANAVISAGGGMAVAKDGRIEAMLPLPLSGLVTDASLKDTALAFAGIRKAMEKIVTWKPPYLVFKACFGATLACNVGPHQTDQGIADVVTGKVLENPVLAVWEGHHHHHH”, “soluble”. To “MSLNFDWIKTRSDFDDDKPAVIDHAKQTSWTYQQLNARADNMAHYLTSQGVKKGDVIGIFAPNDIAILDLLFACFKTGAVFLPLNWRLNPKEIAAIVEDAQLKLLFYAEKHLSSLTDIDQNLLHMDIDVAQYDEIVNPDYHQPFQATPVEPQDLAALIYTSGTTGSPKGVMFSYESFVHNGANLELTYKFNSNYITIVSTPMFHVLGFNDTVLPVLMSGGTLILQRYFNGEELNDMIAQYHPTFIIMIPTMYYSTLRASNFNPENFRAMDYIIQGGSQPLPSIQAAFKQYGINIINGYGLTEAPLVLVNTPENSKRKPMSIGKAVMFVDARILDDNGEEVPTGEIGELAIKAKNVTPGYWNKPAETAKAFHGRYLLTGDLAKMDDDGDIFIIDRKKELIITGGENVLPSEVENALAEHPLVDRCVVVGYDHPKYGESIAAAIILREDEPHYAEILDQHMRSRLAGYKVPRMYVPVTHMPLNSTQKPDKLAIRQMMNDKVSQTLEGHHHHHH” belongs “soluble”; to “MSLNFTLHTLNGIKLWLVLLLLSGAINVCRADSPRQTINFNRGWKYCQGDFDHAARPGFDDSEWEKIGLPHSFSTPYFMSKDFYVGYGWYRKAFPVKKEILGKKSFLEFDGVFQEAEIFVNGHLAGTHKGGYTGFSIDISAYLKEGKNLVAVRVNNCWRPDLAPRAGEHVFSGGIYRNVRLVIKPPTYIDWYGTWITTPDLAENKGKSGSVHIRTDVCNASGKTDTYRLLTTVVDAQGKEVSSVSTSQVLPDNATYTFEQQTKEIQAPQLWHPNHPALYKVISSLYHGQELIDRYETAFGFRWFEWTADRGFFLNGEHLYFKGANVHQDHAGWGDAVTETGMRRDIRLVKEAGFDLIRGSHYPHSPAFSQACDEIGMLFWAENAFWGIGGHKGDGYWNASAYPVNESDRAEFENSVKAQLKELIRIHRNHPSIIVWSMSNEPFFTAPETINPMRKLLEETVKLSKQLDPTRPAAVGGAQRPLGEKRIDKLGDIAGYNGDGSYIPEFQQPGMPTVVSEYGSTTADRPGEYDPGWGDLAKNNAQNGFPWRSGQAIWCAFDHGSIAGSALGKMGIIDYFRIPKRAWYWYRNAYKGITPPEWPQEGTPARISLVADRTDNIKADGTDDVMLSITILDASGKPVSNSPAVKLDILSGPGEFPTGTSILFEKESDIRILDGKAAIEFRSYYAGETVIRATSPGLEPAEVKIRFTGSTPYTEAFKVKERPYTRFETPTKTDNLQTFGPNNPTFCSSSANGHSSAFAADGDESTYWQASENDPERSWTLDTEKGLSIRHIRIAFPDLTPYQYKVEVSMDREHWSLIPDQTNNKQNENIRMIQVVPGIQGRFVRISFTGEKAAITDVQVIGTVIDEGHHHHHH”, “soluble”; to “MSLNILILHRVRYVDVLYHQSIDHELHNVYYIGIEENLNEIPADLRCTKIVRPGVDAVHKEVLEQIENLDVCFDHVVSINEFELIEAALIREKLNIAGPKVADVEKVRNKIVMKHCVGAVNIRIPQYMSLSDFMNSERLAIPPSSQVILKPLDGASSVDVVKFDSQKVLEQALIDRTTGIVALDKETPERIENFEVEEFVSGPVLHIDGMIRNGQIEMIVVSQYINTLLDFANGYPAGSVQLETTEEMKTWALQILNAVDISLGAFHLEAIQTDTGPVFLEIAHRIGGARIAETLTLQTGIHPSILELGLLLDPDFKFELNYDTGYKYAWFIVPGHQLPGNYGLVSGHEFLYGKEEVVMLNQLTMQQPLVKAVTYKESEIPLAGLLKAKSAKELTDLIDRLFGQLQLISVDTPLPYSECMPQKKKHVLVIGNIRQPHKTLEAQGYAISWMYKKVPNFTHTTEDHNRCERILMYSNESAIQLISLARSIDQLQKIDSVVSFHDGAQLDALTIANALELPFSLSMGAIVNTRDKQLSRRILREKNLTEVQSAIAENEQDLHDFFKIYPQVNKVIVKPVAGTGSENVRSLESKELETANLDNVYPVLVEQFVEGREFSVEAFMQEGKCHIFAITEKFKDAQSFIETGHLVPARLSSDEHEKIAAFIAKVLPALGVVSGITHSEIMLGEKIELIETHTRVGGDRIFDLVQMTTGIDMYRLQALQSLGLPIGEDELTPKLNGKHACIKFKLNDHPGKKVIRVNGEEEIKNWSGVEDVSITHQAGEVLPQIVNSFDRSASVLVLCDSSEQALSIAEEAIQKLEFVVGEGHHHHHH”, “soluble”.

In the case of “MSLNILISGIHGFVGSNFIRALKDKHTLYGLDIVSPAKEGVVTTFSWQDFEPTSFPFQTLPQFDAIIHLAGKAHDTKKQSAAQSYFDINTGLTQKIFDFFLESSAKKFIFFSSVKAAADSVVGDVLTEDVIPTPVGPYGESKIKAEEYIKNHFMFPTSSISEDRSLRLEKEKGRIPKNKQVYILRPCMIHGPGNKGNLNLLYNVVKKGIPWPLGDFDNRRSFTSIDNLCYVIEGLLNQDVPTGIYHMGDDEALSTNELIGIMCEAMGKKPHIWKMNKRVMEGCAGLGTLMHLPLNTERLRKLTENYVVSNAKIKAALGIDKLPVTAKEGLMKTIRSFEETKEGHHHHHH”, the “soluble on expression in E. coli” value was “soluble”. To “MSLNKLEKEASVFFKKNQESVSQDFKKKVSSIEMFSTSLNSEENQSLDRLFLSETQNLSDEESYQEDVLSVKLLTSQIKAIQKQHVLLLGEKIYNARKILSKSCFSSTTFSSWLDLVFRTKSSAYNALAYYELFISLPSTTLQKEFQSIPYKSAYILAARKGDLKTKVSVIGKVCGMSNASAIRVMDQLLPSSRSKDNQRFFESDLEKNRQLSDLLVELLRIVCSGVFLSPYNENLLQQLFEVYKQKSEGHHHHHH” belongs “soluble”; to “MSLNLETPSQENLNFMLTEITTKLKMVNVGVFENLELDSVDYNALIDIYQLIKRKSNFSPREMQLFAEELRRIRKEGHHHHHH”, “soluble”. With “MSLNNVIFSQKLYDTAQMIVDGCMGDADPACQTACPMHTDVKQYVRMAGEGNFQGALDLIRSKLFLPQTLGRICAHPCEASCRRNTEFGQPISVAGIKRFVAEKMDNQDHWDLNIAPLTNKHIAIVGAGPAGAQAAIELRRQGHEVTIYEKLDVYGGMMRVGIPEYRLPRDVIDFEYSYLAMLGIKTQFGVEIGKDISFDTLRSEHDAVILAHGAHVGSIIPLPGHDNDGVFSAVEYLKEISETRQFPRACKRVMVIGGGDVAMDCARSSWRIGASDVYQCSLESLESLPASQIEIDESLEEGVEFNAGWGPVAIEHENGKVTGITIKKVLSIFDEQGNFAPQYSEESKTISVDTVVFATGQIVADITDGALEQTRGGRYVVDKQTLASSLEDVFVAGDACGGNIVIEAMALGRKAAMSVERFLTARPLTEDREGHHHHHH”, the “soluble on expression in E. coli” value is reported as “soluble”. To “MSLNPAYFVLLVEELKTKYLVKDICQILQVPLSTYYRWKKKDFSQSSLEKKIGQLCKAYQFTYGYRKIAALMKQEEQVGINKVQRIMQKYQWQCQVKVKKKNRPGSAYYQTENHLNRNFQASQPLEKLTTDITYLYFGDCRLYLSSIMDLYNGEIVAYSIGEKQDTELVLDTLNQLSLPEGSLLHSDQGSVYTSYEYYQCCKKKNVIRSMSRKGTPADNAPIECFHSSLKCETFYHKTAYKYAKSIVIQIVKDYIKYYNEKRIQQKLGYQSPINFRKQAEGHHHHHH” belongs “not soluble”; to “MSLNQASLERNELHNTIWKVANELRGSVDGWDFKQYVLGILFYRYISENMTHYINKEERKRDPSFDYAKLSDEKAERGRKHLIEQKGFFIPPSALFCNALKNACHNEDLNVTLQNIFNEIEKSSLGTPSEENVKGLFADLDVNSNKLGSSHQNRVEKLTKILEAIGGMQLGDYLKSGIDVFGDAYEYLMAMYASNAGKSGGEFFTPQEVSELLAKITLHGQESVNKVYDPCCGSGSLLLQFSKVLGDKNVSKGYFGQEINLTTYNLCRINMFLHDINYSKFHIAHGDTLLDPKHEDDEPFDAIVSNPPYSTKWVGDSNPILINDERFSPAGVLAPKNAADLAFTMHMLSYLSNSGTAAIVEFPGVLYRGNAEAKIREYLVKENVIDCVIALPDNLFFGTSIATCILVLKKNEGHHHHHH”, “not soluble”. To “MSLNQIDRLLTIMQRLRDPENGCPWDKEQTFATIAPYTLEETYEVLDAIAREDFDDLRGELGDLLFQVVFYAQMAQEEGRFDFNDICAAISDKLERRHPHVFADSSAENSSEVLARWEQIKTEERAQKAQHSALDDIPRSLPALMRAQKIQKRCANVGFDWTTLGPVVDKVYEEIDEVMYEARQAVVDQAKLEEEMGDLLFATVNLARHLGTKAEIALQKANEKFERRFREVERIVAARGLEMTGVDLETMEEVWQQVKRQEIDLEGGSHHHHHH” belongs “soluble”; to “MSLNRIAFSAAHVVADPLAASDPWLEAAIDWDHTIAYRQRLWDLGLGVAEAMDTAQRGMGLDWPTSLDLIRRSVEAAKAHGPEALVFSGAGTDHLAPEAARSLDDVIRAYEEQVAAVEKVGGRIILMASRALARIGTSAADYETVYGRILSQVREPVIIHWLGDMFDPALAGYWGTRDLDAAMDTAVAIINAHAAKVDGVKISLLDKDKEIAMRRRLDPAVRMYTGDDFNYAELVAGDAQGYSHALLGIFDAIAPAASAALTALAAGDEAGFHDILAPTVPLSRHIFRAPTRFYKTGVVFMAYLNGHQDHFTMVGGQESARSTLHLAELFRLADRAGLLTDPDLAVQRMRAVLAVRGVEAEGHHHHHH”, “not soluble”.
